Laboratory results as given in the RNAGym collection of RNA variant scans (doi:10.7554/elife.90254).

B1: LINE1-full (parent)
chain: UACGUAGGUGGUUUUCCCCUGAUAGUGCUAAGGGGGCCUGGAAGUUUGGACUGGGCAGAGCUCAACACAGCGUGGCAAAGUGGCUGUGGCUAGACUGCCUCUCUGGAUUCCUCGUCACUCAGCAGGGCAUCUCUGAGAGAAAUGCC

Variants of: B1
Assay: self-cleavage, relative activity (ratio to wild type); higher = more cleavage; in vitro, sequencing; the parent is a self-cleaving ribozyme

Row | Variant | self-cleavage
1 | UACGUAGGUGGUUUUCCCCUGAUAGUGCUAAGGGGGCCUGGAAGUUUGGACUGGGCAGAGCUCAACACAACGUGGCAAAGUGGCUGUGGCUAGACUGCCUCUCUGGAUUCCUCGUCACUCAGCAGGGCAUCUCUGAGAGAGAUGCC [G70A A141G] | 0.17
2 | UACGUAGGUGGUUUUCCCCUGAUAGUGCUAAGGGGGCCUGGAAGUUUGGACUGGGCAGAGCUCAACACUGCGUGGCAAAGUGGCUGUGGCUAGACUGCCUCUCCGGAUUCCUCGUCACUCAGCAGGGCAUCUCUGAGAGAAAUGCC [A69U U104C] | 0.05
3 | UACGUAGGUGGUUUUCCCCUGAUAGUGCUAAGGGGGCCUGGAAGUUUGGACUGGGCAGAGCUCAACACUGCGUGGCAAAGUGGCUGUGGCUAGACUGCCUCUCUGGAUUCCUCGUCACUCAGCAGGGCAUCUCUGAGAGAAACGCC [A69U U143C] | 0.07
4 | UACGUAGGUGGUUUUCCCCUGAUAGUGCUAAGGGGGCCUGGAAGUUUGGACUGGGCAGAGCUCAACACUGCGUGGCAAAGUGGCUGUGGCUAGACUGCCUCUCUGGAUUCCUCGUCACUCAGCAGGGCAUCUCUGAGAGAAAAGCC [A69U U143A] | 0.04
5 | UACGUAGGUGGUUUUCCCCUGAUAGUGCUAAGGGGGCCUGGAAGUUUGGACUGGGCAGAGCUCAACACUGCGUGGCAAAGUGGCUGUGGCUAGACUGCCUCUCUGGACUCCUCGUCACUCAGCAGGGCAUCUCUGAGAGAAAUGCC [A69U U108C] | 0.06
6 | UACGUAGGUGGUUUUCCCCUGAUAGUGCUAAGGGGGCCUGGAAGUUUGGACUGGGCAGAGCUCAACACAACGUGGCAAAGUGGCUGUGGCUAGACUGCCUCUCUGGAUUCCUCGUCACUCAGCAGGGCAUCUCUGUGAGAAAUGCC [G70A A136U] | 0.16
7 | UACGUAGGUGGUUUUCCCCUGAUAGUGCUAAGGGGGCCUGGAAGUUUGGACUGGGCAGAGCUCAACACUGCGUGGCAAAGUGGCUGUGGCUAGACUGCCUCCCUGGAUUCCUCGUCACUCAGCAGGGCAUCUCUGAGAGAAAUGCC [A69U U102C] | 0.06
8 | UACGUAGGUGGUUUUCCCCUGAUAGUGCUAAGGGGGCCUGGAAGUUUGGACUGGGCAGAGCUCAACACUGCGUGGCAAAGUGGCUGUGGCUAGACUGCCUCUCUGGAUUCCUCGUCACACAGCAGGGCAUCUCUGAGAGAAAUGCC [A69U U119A] | 0.03
9 | UACGUAGGUGGUUUUCCCCUGAUAGUGCUAAGGGGGCCUGGAAGUUUGGACUGGGCAGAGCUCAACACUGCGUGGCAAAGUGGCUGUGGCUAGACUGCCUCUCUGGAUUCCUCGUCACCCAGCAGGGCAUCUCUGAGAGAAAUGCC [A69U U119C] | 0.06
10 | UACGUAGGUGGUUUUCCCCUGAUAGUGCUAAGGGGGCCUGGAAGUUUGGACUGGGCAGAGCUCAACACUGCGUGGCAAAGUGGCUGUGGCUAGACUGCCUCUCUGGAUGCCUCGUCACUCAGCAGGGCAUCUCUGAGAGAAAUGCC [A69U U109G] | 0
11 | UACGUAGGUGGUUUUCCCCUGAUAGUGCUAAGGGGGCCUGGAAGUUUGGACUGGGCAGAGCUCAACACUGCGUGGCAAAGUGGCUGUGGCUAGACUGCCUCUCUGGAUCCCUCGUCACUCAGCAGGGCAUCUCUGAGAGAAAUGCC [A69U U109C] | 0.06
12 | UACGUAGGUGGUUUUCCCCUGAUAGUGCUAAGGGGGCCUGGAAGUUUGGACUGGGCAGAGCUCAACACAACGUGGCAAAGUGGCUGUGGCUAGACUGCCUCUCUGGAUUCCUCGUCACUCAGCAGGGCAUCUCUGAGGGAAAUGCC [G70A A138G] | 0.21
13 | UACGUAGGUGGUUUUCCCCUGAUAGUGCUAAGGGGGCCUGGAAGUUUGGACUGGGCAGAGCUCAACACAACGUGGCAAAGUGGCUGUGGCUAGACUGCCUCUCUGGAUUCCUCGUCACUCAGCAGGGCAUCUCUGAGAGAAAUGCC [G70A] | 0.1
14 | UACGUAGGUGGUUUUCCCCUGAUAGUGCUAAGGGGGCCUGGAAGUUUGGACUGGGCAGAGCUCAACACUGCGUGGCAAAGUGGCUGUGGCUAGACUGCCUCUCUGGAUUCCUCGUCACUCAGCAGGGCAGCUCUGAGAGAAAUGCC [A69U U130G] | 0.09
15 | UACGUAGGUGGUUUUCCCCUGAUAGUGCUAAGGGGGCCUGGAAGUUUGGACUGGGCAGAGCUCAACACAACGUGGCAAAGUGGCUGUGGCUAGGCUGCCUCUCUGGAUUCCUCGUCACUCAGCAGGGCAUCUCUGAGAGAAAUGCC [G70A A94G] | 0.07
16 | UACGUAGGUGGUUUUCCCCUGAUAGUGCUAAGGGGGCCUGGAAGUUUGGACUGGGCAGAGCUCAACACAACGUGGCAAAGUGGCUGUGGCUAGACUGCCACUCUGGAUUCCUCGUCACUCAGCAGGGCAUCUCUGAGAGAAAUGCC [G70A U100A] | 0.05
17 | UACGUAGGUGGUUUUCCCCUGAUAGUGCUAAGGGGGCCUGGAAGUUUGGACUGGGCAGAGCUCAACACAACGUGGCAAAAUGGCUGUGGCUAGACUGCCUCUCUGGAUUCCUCGUCACUCAGCAGGGCAUCUCUGAGAGAAAUGCC [G70A G80A] | 0.48
18 | UACGUAGGUGGUUUUCCCCUGAUAGUGCUAAGGGGGCCUGGAAGUUUGGACUGGGCAGAGCUCAACACAACGUGGCAAGGUGGCUGUGGCUAGACUGCCUCUCUGGAUUCCUCGUCACUCAGCAGGGCAUCUCUGAGAGAAAUGCC [G70A A79G] | 0.1
19 | UACGUAGGUGGUUUUCCCCUGAUAGUGCUAAGGGGGCCUGGAAGUUUGGACUGGGCAGAGCUCAACACUGCGUGGCAAAGUGGCUGUGGCUAGACUGCCUCUCUGGAUUCCCCGUCACUCAGCAGGGCAUCUCUGAGAGAAAUGCC [A69U U112C] | 0.06
20 | UACGUAGGUGGUUUUCCCCUGAUAGUGCUAAGGGGGCCUGGAAGUUUGGACUGGGCAGAGCUCAACACUGCGUGGCAAAGUGGCUGUGGCUAGACUGCCUCUCUGGAUUCCACGUCACUCAGCAGGGCAUCUCUGAGAGAAAUGCC [A69U U112A] | 0.04
